Experimental data taken from publication PMC8342710, “Switching at the ribosome: riboswitches need rProteins as modulators to regulate translation”.

Legend:
[1] = molecular target: 30SΔS1 ribosomal subunit (rS1-depleted);ribosomal protein rS1 (Escherichia coli JE28;Vibrio vulnificus CMCP6) (UniProt A0A3Q0L6Y6); experiment: MST; conditions: MST: 25 mM K-phosphate pH 7.2, 150 mM KCl, 5 mM MgCl2, 5 mM DTT, 0.4 mg/mL BSA, 0.05% Tween20, RNasin, 25 °C, EMSA: 25 mM K-phosphate pH 7.2, 75 mM KCl
[2] = molecular target: rS1-depleted 30S ribosomes from E. coli (E. coli (endogenous in strain JE28)) (UniProt P0A7V0); experiment: MST; labeled 30SΔS1 (30 nM) with a 1:1 dilution series of rS1 (3 µM); 30 min at 25 °C; 25 mM potassium phosphate pH 7.2, 150 mM KCl, 5 mM MgCl2, 5 mM DTT, 0.4 mg/mL BSA, 0.05% Tween20, RNasin
[3] = molecular target: ribosomal protein rS1 (Vibrio vulnificus CMCP6, UniProt A0A3Q0L6Y6 1-556); experiment: NMR; holo (adenine); 1:1 rS1 opens P4 and P5 by 50%; MST: 25 mM K-phosphate pH 7.2, 150 mM KCl, 5 mM MgCl2, 5 mM DTT, 0.4 mg/mL BSA, 0.05% Tween20, RNasin, 25 °C; EMSA: 25 mM K-phosphate pH 7.2, 75 mM KCl, 5 mM DTT, on ice; conditions: protein: recombinant; tags: N-terminal His-thioredoxin tag, cleaved by TEV; label: 13C,15N (NMR); riboswitch fold with helices P1-P5

Question: Which Kd [1] does the source give for “GCUUCAUAUAAUCCUAAUGAUAUGGUUUGGGAGUUUCUACCAAGAGCCUUAAACUCUUGAUUAUGAAGUCUGUCGCUUUAUCCGAAAUUUUAUAAAGAGAAGACUCAUGAAUUACUUUGACCUGCCG [ASW14-140, Cy5-labeled add riboswitch]” here?
Answer: Its Kd is 60 nM.

Question: With “ribosomal protein rS1 from Vibrio vulnificus (from UniProt A0A3Q0L6Y6 1-556) (natural protein)” as the molecule, how does the Kd [2] read?
Answer: Its Kd is 170 nM.

B1: ASW14-140, add riboswitch (structured_RNA)
RNA: GCUUCAUAUAAUCCUAAUGAUAUGGUUUGGGAGUUUCUACCAAGAGCCUUAAACUCUUGAUUAUGAAGUCUGUCGCUUUAUCCGAAAUUUUAUAAAGAGAAGACUCAUGAAUUACUUUGACCUGCCG
Question: Does B1 bind [3]?
Answer: Result: binds
